According to IntAct's records for PubMed 14769790:

B1: Thioredoxin M-type, chloroplastic (Spinacia oleracea (Spinach)), P07591 (parent)
chain: MAIENCLQLSTSASVGTVAVKSHVHHLQPSSKVNVPTFRGLKRSFPALSSSVSSSSPRQFRYSSVVCKASEAVKEVQDVNDSSWKEFVLESEVPVMVDFWAPWCGPCKLIAPVIDELAKEYSGKIAVYKLNTDEAPGIATQYNIRSIPTVLFFKNGERKESIIGAVPKSTLTDSIEKYLSP
partner: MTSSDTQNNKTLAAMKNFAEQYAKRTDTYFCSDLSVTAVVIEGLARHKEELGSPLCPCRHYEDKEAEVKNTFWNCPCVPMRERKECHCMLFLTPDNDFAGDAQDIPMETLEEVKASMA
B2: Ferredoxin-thioredoxin reductase, catalytic chain (Synechocystis sp. (strain PCC 6803 / Kazusa)), Q55389 (parent)
chain: B1 partner
partner: B1 chain
B3: Ferredoxin-thioredoxin reductase, catalytic chain (Synechocystis sp. (strain PCC 6803 / Kazusa)), Q55389 (parent)
chain: B1 partner
partner: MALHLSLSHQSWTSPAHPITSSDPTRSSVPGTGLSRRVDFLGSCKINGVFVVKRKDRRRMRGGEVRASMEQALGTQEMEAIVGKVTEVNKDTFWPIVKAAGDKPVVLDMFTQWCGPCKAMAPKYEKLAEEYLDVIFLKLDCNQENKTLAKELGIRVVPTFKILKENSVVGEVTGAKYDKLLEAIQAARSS

Variants of: B1
Conditions: with ftrc_syny3 ftrC, Q55389

effect of a mutation on the interaction	Variant
increasing interaction	C107S

Variants of: B2
Conditions: with trxm_spiol trxm, P07591

effect of a mutation on the interaction	Variant
decreasing interaction	H87Y

Variants of: B3
Conditions: with trxf_spiol trxf

effect of a mutation on the interaction	Variant
increasing interaction	C58S
